Results taken from a protein production outcome set (Wang et al. 2014).

Experiment: label from the status in PepcDB records
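Further: failed if final PepcDB status was selected cloned or expressed and not failed if soluble or beyond.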

Sequence | protein production
MCIAIPGKMTAIVDENTATIDMGGICRDVNMALMGGAEESMIGKHFLVHVGYAISEISEEESEETMRLLKIMAGLEEIDSFE | not failed
MSHLRIPKNWTIQRSTPFFTKDNVPEALLTHHNTAVDVFGQICVMEGVVTYYGFANSEATEPEIKVVINAGQFATSPPQYWHRIELSDDAQFNINFWSDQDKSGKKMFNTKLEHHHHHH | not failed
MFKALLPQSKQKLQHAKYFAKKMHQASASDQLQSHWHLQQWWILIAGFFLFGSVLVFAFTRPISSTKIEAEYLKEVDPQIYTLLNGEMLTPPPEVDESLISAAIVEANQLEQQYASQHSETNAPSASENLMHHNLIDTQFVDRKWDKMNPRYKQRLLMVFKIMKERYGYELVLLEGYRSPERQNLLSGNPNTTRARGYQSYHQFGLAADVAFKRNGKVVISERDPWAMRGYQLYGEVAESVGLTWGGRWKSIQDYGHTEYRMPGLRKTKEMAEQLIAEGQLTANAAS | failed
MNNRGAVTDMISQLPEPLILQILGSLPTKVAITTSVLSKQWQSHWKMMPKLEFDSFLRRLDLENVTKCLLSHKAPVLQTFSLKVRLDRRNNAVDIGCLIGIAMTRNVRKLVLEVYFHRGTFTFPRSLYHCETLETLELILNVVMDVPPSVYLKSLKTLYLLAVDFKDDESVINLLSGCPNLQDLVMRRNSSSNVKTFTIAVPSLQRLAIHNGSGTPQHCGYTINTPSLKYLKLEGSKAFESFMVENVSELIEVNITDVSEIIDEKLRVFLTSVTRLSLALSPSVFTFPTGIIFNQLVYLEICTNKTSWWKLLPLMLHSSPKLQVLKLIDDTDGMNYVEASGEWNQPKNVPECLHHLEKFIWEGYKWKREEIEVAKYILKNTNRLKRAIFSLKGISSEDRLVVVEDLKSVVMATTNSCQFQFI | failed
MNRIKEVLEEKGIKQTWLAEKLGKSFSIVNSYVCNRRQPSLDILFEIAKILEVDVRVLIGTKENRQKSK | not failed
MNLTKVKGNTFFIKGGTNTGIYVFEDNTALMIDPGLCGSRPRRVNKVLDENNIQVRYIINTHGHDDHYGACNQFKEYYKDVCIMSSEYDKLYIENPELFSKYIVGGKSNVFMDNILKNKMLDDIKIDKSIEAGKFELNNEMFDIIEFQGHTPGSIAVLTKDNVIFVGDLLIGDEILSKYDFLFLYDIQEQINSLEKLKNIDFEYLVLGHGKQVISKEDSYKLIEKHLNALKKYLYQIRELLVEPKSLEILLKNIINNNNLSNNYKEYHFFKSSLVSVISYLVDLEEIGYILENGELLYYTKTK | failed
MEPSAKHLQLQTLLSERHAYLMEGNREAMHQLLSSDFSFIDGQGRQFDAETYLDHYVDPDQIQWSNQISESMVVEVFETTALVQEIVEDHFSYGRSMYIGRFRSVSLYHWANEGWKWHFHQLTPLDPS | not failed
MGEVFAGRYELVDPIGRGGVGAVWRAWDHRRRRYVAAKVLQQRDAHSLLRFVREQALRIDHPHVLAPASWAADDDQVLFTMDLVTGGSLVHLVGDYGPLPPEFVCTLLDQLLSGLAAVHGEGVVHRDIKPANLLLEATGTGRPRLRLSDFGIAMRLGEPRLTETNLVVGTPGYLAPEQMMGAEPDFPSDLFAVGLVALYLLEGAKPDAKVLVQHFAEHGTPPAPRGIPEPLWQVVATLLQPDPSARFRTATGARKALAAAVELLPEPGPDDELIEIFDQVGPLPTGFGPEGPFKRASGVDDVPTDPRRPAGTPPGVDPSPPATPPTPPPAPPWQGTPPAGPSSGLDRPSPGSPGPPPTGPDSTPASPPPGTPVTATGTPSAPGLPPASDQGWTPSTPSGPTAPPSAPSAPSAPSAPGPTRPAPHGTHSEEVPLAERPGAMSETGSFHLPPPQPTVTPTSDAAASDAAAEAAQPPAPHPAFTGGPRGLPPDRAPGRSQHPAPHGPPLTARSLAPSPARRADVPTAAYTARNPRSAPPAQHRGARRRRRPGPPARVALPVLLLALACYAVGFWALTRI | failed
KTPADNIETADLSASVPTRPAEPERKTLADYGGYPSALDAVKQKNDAAVAAYLENAGDSAMAENVRNEWLKSLGARRQWTLFAQEYAKLEPAGRAQEVECYADSSRNDYTRAAELVKNTGKLPSGCTKLLEQAAASGLLDGNDAWRRVRGLLAGRQTTDARNLAAALGSPFDGGTQGSREYALLNVIGKEARKSPNAAALLSEMESGLSLEQRSFAWGVLGHYQSQNLNVPAALDYYGKVADRRQLTDDQIEWYARAALRARRWDELASVISHMPEKLQKSPTWLYWLARSRAATGNTQEAEKLYKQAAATGRNFYAVLAGEELGRKIDTRNNVPDAGKNSVRRMAEDGAVKRALVLFQNSQSAGDAKMRRQAQAEWRFATRGFDEDKLLTAAQTAFDHGFYDMAVNSAERTDRKLNYTLRYISPFKDTVIRHAQNVNVDPAWVYGLIRQESRFVIGAQSRVGAQGLMQVMPATAREIAGKIGMDAAQLYTADGNIRMGTWYMADTKRRLQNNEVLATAGYNAGPGRARRWQADTPLEGAVYAETIPFSETRDYVKK | failed
MNKTLIAAAVAGIVLLASNAQAQTVPEGYQLQQVLMMSRHNLRAPLANNGSVLEQSTPNKWPEWDVPGGQLTTKGGVLEVYMGHYMREWLAEQGMVKSGECPPPYTVYAYANSLQRTVATAQFFITGAFPGCDIPVHHQEKMGTMDPTFNPVITDDSAAFSEQAVAAMEKELSKLQLTDSYQLLEKIVNYKDSPACKEKQQCSLVDGKNTFSAKYQQEPGVSGPLKVGNSLVDAFTLQYYEGFPMDQVAWGEIKSDQQWKVLSKLKNGYQDSLFTSPEVARNVAKPLVSYIDKALVTDRTSAPKITVLVGHDSNIASLLTALDFKPYQLHDQNERTPIGGKIVFQRWHDSKANRDLMKIEYVYQSAEQLRNADALTLQAPAQRVTLELSGCPIDADGFCPMDKFDSVLNEAVK | not failed
MDKFSDMTMFVSIVKHQGLAAAGRELGLSPATMTARLQALEERYRVKLLNRSTRHVSLTDAGELYYKASLEILDNVNETENLILNGVKEVKGALRVAAPKDIGKQYILPILSEFCEKYPDVVPYLYLNDDVSNIAESGIDIVVRYGELADSSLISRRLSSSHRVLCASPDYLAKYGTPLTPQDLINHHCLAMVRSHEELKTWHFQGSDKKNVITVLPKRFSDDGEVVRYWALEGAGIALKSILDVQDDINNRRLVTVLNGYMANFNTSTSVSSADLNVVYMSKKYQPKRIRLFLDFLLERFETMKNGGK | not failed
MNEKTLHLDKKSAVVGGLNLSQTKIFGTPLPLFLFLLLTVLAAHFTDTLPSGLVGGFAFMFVIGAIFGEVGKRLPIFNKYIGGAPVMIFLVAAWFVHMGWLSDREIKTVTEVMDKSKFLDLFIAVLITGSILAVNRKLLIRSLAGYIPTILAAVAGAAVFGIAIGLVFGITPDRIMMLYVLPIMGGGNGAGAIPLSEIYESVTGGSKEQYYSVAIAILTIANIVAIVAAAVINIIGEKIPSLTGNGELVRSSKLDVSEEAKNLTVTHREIAIGLMLAACVYTFSYALSKEILPGFGSIQIHTFAYMVVIIAILNAAGLCSDEIKEGAKRLSNFFSKQMLWLLMVGVGIAYTDLAEIINALTFANVIIATVIVLGAIIGAALGGWAMGFYPVEASITAGLCMANRGGSGDLEVLAASNRMSLLSYAQISSRLGGGIVLVIASVVFGMFV | failed
MLWFLTCVAALVGGYFIYGAFVEKVFGINEKRQTPAHTKTDGVDYVPMSTPKVYLVQLLNIAGVGPIFGPIMGALYGPAAMLWIVVGCIFAGAVHDYFSGMLSIRNGGASVPSITGRYLGNGAKHFMNIFAIVLLLLVGVVFVSAPAGMITNLINQQTDFTVSMTTMVVIIFAYYILATIVPVDKIIGRFYPLFGALLIFMSVGLMTAIAFSSEHQVLGGFEISDMVKNLNPNDMPLWPALFITIACGAISGFHATQSPLMARCMENEKNGRFVFYGAMIGEGIIALIWCTVALSFFGSLEALSEAVKNGGPGNVVYGASFGLLGVFGGVIAFLGVVILPITSGDTAFRSSRLILAEYFNMEQKTLRNRLLMAVPLFVIGAVLTQVDFGIIWRYFGFANQATAVMMLWTATAYLMRHNKLHWICTVPALFMTTVCISFILNSSTLGFGLPMQISTIAGVLASLGALAYVAKVSKGKGETDLADEEKPQGVTKTA | failed
PEAERSTISLTRLHATIQNAPGVLGLVCTIIGEAGGNIVNLRMHHRQSDFFDTDIDVEVRDAKHLTNIQAALRACPSVETVDRTR | failed
MLKMKNNGGGCLAYISDCSVYLPVWKLKRDEISKETGMPSMGGERAVAHWDEDSITMAVEAARKFDGAFDAVIFASSSPPFRIKQCASFIASALDLPDSTFTMDITDTMRAATDALITANEFVDSGRFSRVLVVAGDKIPTKPGTLYEQLYGDAAAAVVVEKEGGAKILGYSTSTKPLPGSWMLADDDTVRDYDMRVDARYGYAASVQKAAMPLFAKLGLSPADIDRIVASAPDPKSYQGLLKAVGARPEEFYFDSVGIAGSAHPLLLLATQLEREGRILLGGYGEGADVIAVEIEQAMDSNMGRMLESRKEISYGDYLFNRGFVGVRDAPDRPSLTKFWRDEKSIIRFYGMKCKSCGTVSYPISRCCIECGAKDNYEEVRLGERGKIYTFTIDYLVMPGNYAGDGVHPHFIAVVDLDGGGRVLFELTDTLRDFSGVECDAEVERTFRLLFEKNRFRYYGWKARLPRLEHHHHHH | not failed
MKKFPELRKYTNPVWVRLVILCQKKLKVCFIMFIVMSISTSAEIYYEEAEEFLSKGDLVQACEKYYKAAEEAIKLLVIENNLKEIINEAEEHGWDSKTLNDAVTELSYKLGDNIIDMWASAVTLFTARKFMDKDLIENYKKDIKTLIEEAKQRFSIKVLKLEHHHHHH | failed
MSLKFFLKAYARIAAIAAAVVLVCVLLFNGINSVREQYWHEQAMTPVMRWLAAAPDPLSQYHWMAPMFGLHSGVAADFGLSQVALERLGYGQVVAQSTDSGYGYYVLGLGGEVLGIHLEQPYRDLARAISLMVRWHLDTSPAAQRADVAQQLAESLNLDIRLVQKTEDLPDQQALERLGDTGLAIFEHGDNRARALVRLSEGALVVVTLPPPFNPWGWPIILLLTAVVGGVLAVALFLALRFVESHLRKVESVAIRIARGEMGARVESEQGTLVSRLGTSFNGMAEHIQRLVQVQREMIHAVSHELRTPVARIRFGVQMIESGSTQEVLEKQLEGIDGDIQELDELIDEILTYARLEQGGPVFSLREGSVTDIVRQVVSEQRLIREGVDIECQIDEASERWAQADMEPRYIHRAIQNLVGNAARYAAGRVQVSCHLDEDNCRIDVEDDGPGIPEQDWEKVFTAFARLDDSRTRTSGGYGLGLSIVRRILYWHGGQAFVGRSDVLGGARFSLVWPRLKPADPDL | failed
MEAEVWEAEGYNLVLDSDLYDADGYDVPDPGLLTEKNELTFTEPSQVLPFLTSSQQWQSLTPRARARRLWLLLRTSLHEVVEKEKRAELRAARLTHGLEPLRRLEVAAGLRSVAQDPVGGRFVVLDGAGRLHLHKEDGWAQETLLAPVRLTGLVTVLGPLGAVGRFVGWGPAGLAILRPNLSLLWLSEQGVGRAPGWAPTCCLPVPDLRLLLVAEMNSSLALWQFRSGGRRLVLRGSALHPPPSPTGRLMRLAVAPVPPHHVLRCFAAYGSAVLTFDLHAWTLVDVRRDLHKTTISDLAYCEEVEAMVTASRDSTVKVWEADWQIRMVFVGHTGPVTAMTVLPNTTLVLSASQDGTLRTWDLQAAAQVGEVALGFWGQDKLSRRVGRLLAPVRPGWPVLSLCASSMQLWRVRELYSPLAQLPAKVLHVQVAPALPAPAHQSLPTRLVCACADGSVYLLSAATGRIVSSLLLEPEDCAAAVAYCLPREALWLLTRAGHLVRANAARCPMSVLHRVCPPPPPAPQPCCLHLYSHLTDLGGAFSSWEIVRQHWGELRCSSVACAWKNKNRYLPVVGHTDGTLSVLEWLSSKTVFQTEAHSPGPVVAIASTWNSIVSSGGDLTVKMWRVFPYAEESLSLLRTFSCCYPAVALCALGRRVTAGFEDPDSATYGLVQFGLGDSPRLDHRPQDDPTDHITGLCCCPTLKLYACSSLDCTVRIWTAENRLLRLLQLNGAPQALAFCSNSGDLVLALGSRLCLVSHRLYLPTSYLVKKMCRKAPDVVDDPPLPLMSQESLTSAQLQRLTNLHGAASLRSHAGLLSPPGGPPFPLWVGAWRCGALWS | failed
